# ± gives the uncertainty stated by the source.
# B1: Pituitary-specific positive transcription factor 1, residues 130 to 198; numbered along this chain, P28069 (parent)
# chain: RELEKFANEFKVRRIKLGYTQTNVGEALAAVHGSEFSQTTICRFENLQLSFKNACKLKAILSKWLEEAE
# Variants of: B1
# Assay: abundance fitness (aPCA) (normalised: wild type 0, dead -1); higher = more abundant; growth selection in yeast, the domain comes from the species named
# Details: Homo sapiens
row,Variant,abundance fitness
1,I41H,-0.56 ± 0.26
2,R43Q,0.11 ± 0.12
3,I15C,-0.327 ± 0.094
4,G18D,-0.556 ± 0.15
5,I60L,-0.135 ± 0.053
6,L28P,-0.853 ± 0.4
7,E66V,-0.123 ± 0.054
8,C42N,0.092 ± 0.093
9,F36L,-0.393 ± 0.049
10,A29W,-0.932 ± 0.27
11,F6H,-0.726 ± 0.12
12,A30K,-0.008 ± 0.1
13,F6C,-0.992 ± 0.17
14,K5I,-0.079 ± 0.054
15,T39I,-0.312 ± 0.1
16,E4D,-0.612 ± 0.32
17,N53L,-0.001 ± 0.049
18,L47R,-0.065 ± 0.066
19,Q21W,-0.592 ± 0.13
20,H32Y,0.276 ± 0.14
21,F6E,-0.791 ± 0.14
22,L57N,-0.72 ± 0.12
23,A7R,-0.7 ± 0.094
24,E66R,-0.241 ± 0.051

row,Variant,abundance fitness
1,L61S,-0.815 ± 0.14
2,W64C,-0.164 ± 0.15
3,N23P,-0.992 ± 0.39
4,A68E,-0.003 ± 0.063
5,W64V,-0.966 ± 0.25
6,N46V,-0.661 ± 0.31
7,S37P,-0.544 ± 0.099
8,F44E,-0.72 ± 0.18
9,G33E,-0.856 ± 0.16
10,I41L,-0.541 ± 0.083
11,T22Y,-0.392 ± 0.2
12,Y19G,-0.501 ± 0.4
13,G18W,-0.83 ± 0.23
14,I60G,-0.495 ± 0.091
15,E35S,-0.051 ± 0.058
16,N8G,-0.336 ± 0.12
17,E67Y,-0.36 ± 0.09
18,A54M,0.358 ± 0.08
19,A68M,-0.061 ± 0.084
20,F6N,-0.88 ± 0.21
21,E26G,-0.771 ± 0.29
22,I60D,-0.343 ± 0.11
23,K5R,-0.117 ± 0.043
24,L65V,-0.38 ± 0.059

row,Variant,abundance fitness
1,S34T,-0.139 ± 0.097
2,N53G,-0.087 ± 0.074
3,N8D,-0.532 ± 0.17
4,K52Y,0.057 ± 0.11
5,L28G,-0.715 ± 0.14
6,A27S,-0.106 ± 0.051
7,K63W,-0.589 ± 0.076
8,S37T,-0.063 ± 0.055
9,V31G,-0.404 ± 0.1
10,L61T,-0.778 ± 0.18
11,N53H,0.233 ± 0.059
12,R43I,-0.888 ± 0.3
13,V12M,-0.045 ± 0.089
14,F51M,-0.156 ± 0.13
15,A59P,0.381 ± 0.058
16,N23L,-0.478 ± 0.12
17,F6T,-0.992 ± 0.17
18,K58G,-0.652 ± 0.095
19,S62A,-0.015 ± 0.072
20,A29V,-0.87 ± 0.31
21,R13V,-0.734 ± 0.1
22,F36K,-0.744 ± 0.13
23,E2A,-0.412 ± 0.087
24,K5G,-0.478 ± 0.071

row,Variant,abundance fitness
1,N46P,-0.89 ± 0.4
2,L17A,-0.401 ± 0.091
3,K11V,-0.694 ± 0.15
4,L65T,-0.935 ± 0.18
5,C55S,0.024 ± 0.062
6,L47G,0.292 ± 0.063
7,S37I,-0.697 ± 0.21
8,S62I,0.001 ± 0.081
9,Y19A,-0.421 ± 0.19
10,S37F,-0.901 ± 0.15
11,V31L,-0.058 ± 0.039
12,G25N,-0.911 ± 0.38
13,Q48H,-0.66 ± 0.2
14,I60W,-0.611 ± 0.14
15,L61C,-0.379 ± 0.19
16,E4S,-0.157 ± 0.079
17,Q48M,-0.505 ± 0.27
18,K16L,-0.468 ± 0.097
19,E9A,-0.156 ± 0.076
20,K5N,-0.079 ± 0.056
21,T22G,-0.052 ± 0.1
22,T39W,-0.393 ± 0.095
23,E9V,-0.65 ± 0.1
24,F44D,-0.866 ± 0.28

row,Variant,abundance fitness
1,F44A,-0.958 ± 0.26
2,K58D,-0.652 ± 0.26
3,N23C,-0.184 ± 0.16
4,K5V,-0.278 ± 0.041
5,E26N,-0.083 ± 0.1
6,L65E,-0.779 ± 0.16
7,I15S,-0.272 ± 0.055
8,K11M,-0.546 ± 0.16
9,E45R,-0.987 ± 0.18
10,L49E,-0.616 ± 0.14
11,S34M,-0.188 ± 0.097
12,L49C,-0.208 ± 0.067
13,E2L,-0.672 ± 0.14
14,A68S,-0.518 ± 0.15
15,Q48P,-0.506 ± 0.21
16,V24I,-0.545 ± 0.074
17,L65I,0.105 ± 0.2
18,F10W,-0.961 ± 0.24
19,I15M,0.014 ± 0.058
20,E9P,-0.917 ± 0.31
21,R1K,0.376 ± 0.14
22,A54R,-0.974 ± 0.37
23,A30D,-0.457 ± 0.11
24,L17N,-0.729 ± 0.23

row,Variant,abundance fitness
1,L3G,-0.571 ± 0.11
2,L3Y,-0.22 ± 0.13
3,E2H,-0.968 ± 0.39
4,K5S,-0.278 ± 0.044
5,S62F,-0.059 ± 0.056
6,S50D,0.162 ± 0.093
7,A30Y,-0.633 ± 0.13
8,S62Y,-0.585 ± 0.17
9,N46R,-0.313 ± 0.056
10,K16Y,-0.64 ± 0.12
11,A59D,0.094 ± 0.083
12,E9L,-0.246 ± 0.1
13,A59I,0.049 ± 0.064
14,A59M,-0.076 ± 0.064
15,I60M,-0.239 ± 0.079
16,Q48R,-0.331 ± 0.088
17,T40W,-0.624 ± 0.11
18,L47D,-0.689 ± 0.15
19,L65H,-0.887 ± 0.32
20,K56Q,-0.074 ± 0.067
21,E66A,-0.054 ± 0.069
22,T39K,0.052 ± 0.17
23,Q21M,-0.394 ± 0.099
24,L65S,-0.636 ± 0.093

row,Variant,abundance fitness
1,L28N,-0.863 ± 0.26
2,S37H,-0.689 ± 0.15
3,G33F,-0.934 ± 0.47
4,S37Q,-0.736 ± 0.14
5,L49F,-0.149 ± 0.1
6,Y19F,-0.501 ± 0.4
7,N23E,0.352 ± 0.073
8,A27K,-0.483 ± 0.1
9,I15H,-0.393 ± 0.093
10,E67R,-0.172 ± 0.058
11,V12I,-0.002 ± 0.11
12,G25R,-0.813 ± 0.087
13,F6A,-0.666 ± 0.11
14,G33P,-0.393 ± 0.075
15,T40H,-0.403 ± 0.13
16,L57D,-0.67 ± 0.1
17,E45T,-0.821 ± 0.13
18,R43S,-0.416 ± 0.077
19,V31Q,-0.033 ± 0.067
20,A27D,-0.221 ± 0.17
21,G18I,-0.665 ± 0.27
22,N53S,0.115 ± 0.057
23,N46A,-0.15 ± 0.1
